The record followed here is article PMC3852207, “The Structure of the RLIP76 RhoGAP-Ral Binding Domain Dyad: Fixed Position of the Domains Leads to Dual Engagement of Small G Proteins at the Membrane” (Structure(London, England:1993), 2013).

Sequences and labels used below:
B1: His-RLIP76 GAP insert (RLIP76 GAP domain with the F-G loop of p50 RhoGAP) (domain or fragment)
chain: PNLKPIFGIPLADAVERTMMYDGIRLPAVFRECIDYVEKYGMKCEGIYRVSGIKSKVDELKAAYDREESTNLEDYEPNTVASLLKQYLRDLPENLLTKELMPRFEEACGRTTETEKVQEFQRLLKELPECNYLLISWLIVHMDHVIAKELETKMNIQNISIVLSPTVLWAKDAAITLKAINPINRVLYVFFTHVQELFGNVVLKQVMKPL
notes: Made from the pET16b RLIP GAP domain construct; also called GAP insert mutant; RLIP76 GAP insert domain
B2: Q61L Cdc42·[3H]GTP (natural protein)
chain: not shown
notes: Cdc42, GTPase-deficient mutant Q61L, loaded with [3H]GTP; Q61L is stated for the SPA experiments in general; also called [3H]GTP·Cdc42
B3: RalB (natural protein, UniProt P11234 1-206, looked up)
chain: MAANKSKGQSSLALHKVIMVGSGGVGKSALTLQFMYDEFVEDYEPTKADSYRKKVVLDGEEVQIDILDTAGQEDYAAIRDNYFRSGEGFLLVFSITEHESFTATAEFREQILRVKAEEDKIPLLVVGNKSDLEERRQVPVEEARSKAEEWGVQYVETSAKTRANVDKVFFDLMREIRTKKMSENKDKNGKKSSKNKKSFKERCCLL
notes: RalB small GTPase

The target of one experiment is Q61L Rac1·[3H]GTP (UniProt P63000 1-192, Q61L). The experiment in a line: scintillation proximity assay (competition); competitor titrated into 30 nM [3H]GTP·Rac1 or [3H]GTP·Cdc42 and 30 nM GST-p50 RhoGAP immobilised on fluoromicrospheres via an anti-GST antibody; partial competition model for RLIP76 GAP and didomain, full competition for GAP insert and free p50 RhoGAP. The settings on record: both partners purified.

The target of a further experiment is T1, GST-PAK1 (UniProt Q13153 1-545).
T1 construct: PAK1, positive control effector of Cdc42 and Rac1
Briefly: scintillation proximity assay (direct); GST-PAK1 on SPA beads as control binding partner; concentration of Q61L Rac1/Cdc42·[3H]GTP varied; apparent Kd. The settings on record: both partners purified. (Scintillation proximity formats need no separation of bound from free tracer.)

Experiment [1] concerns the target B1. Briefly: scintillation proximity assay (competition); competitor titrated into 30 nM [3H]GTP·Rac1 or [3H]GTP·Cdc42 and 30 nM GST-p50 RhoGAP immobilised on fluoromicrospheres via an anti-GST antibody; partial competition model for RLIP76 GAP and didomain, full competition for GAP insert and free p50 RhoGAP. The settings on record: both partners purified.
Experiment [2] has as its target T2, His-RLIP76 GAP-GBD didomain (residues 184-446) (human, UniProt Q15311 184-446).
T2 construct: Construct details are in Rajasekar et al., 2012; also called RLIP76 didomain; RhoGAP-GBD didomain; source: expressed and purified as described previously (Rajasekar et al., 2012)
T2 sequence (looked up): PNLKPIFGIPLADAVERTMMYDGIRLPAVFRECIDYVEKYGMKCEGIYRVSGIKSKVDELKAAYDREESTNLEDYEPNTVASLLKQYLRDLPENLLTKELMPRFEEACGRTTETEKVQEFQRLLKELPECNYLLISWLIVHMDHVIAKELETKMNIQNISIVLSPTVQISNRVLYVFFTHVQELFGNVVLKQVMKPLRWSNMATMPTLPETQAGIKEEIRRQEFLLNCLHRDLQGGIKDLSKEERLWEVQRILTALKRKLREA
Briefly: not stated; data not shown.

As for B1, in the experiment with Q61L Rac1·[3H]GTP, the Kd came out at 1440 nM. Take B2: the Kd came to 32 nM with GST-PAK1 and 1270 nM in experiment [1].

Turning to B3, the Kd in experiment [2] is ~200 nM.
